Here are results for two molecules from article PMC10245032 (EMBO Molecular Medicine, 2023).

Holding throughout (conditions): both partners purified
The target of assay [1] is T1, PfCSP C‐linker peptide (aa 273–310) (Plasmodium falciparum NF54, UniProt P19597).
T1 construct: Plasmodium falciparum NF54 circumsporozoite protein, C-linker, aa 273–310; source: synthetic peptide (PSL Peptide Specialty Laboratories GmbH)
T1 chain: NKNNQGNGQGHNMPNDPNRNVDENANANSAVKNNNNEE
Briefly: ELISA; antigen coated on 384-well plates overnight at 4°C in PBS (full-length PfCSP 0.4 μg/ml, C-CSP 1 μg/ml, peptides 2 μg/ml); mAb from 4 μg/ml in PBS, RT 1.5 h; detected with anti-human IgG-HRP; AUC.

For assay [2], the target named is T2, PfCSP C‐terminal linker peptide P2 (PfCSP 281–294) (Plasmodium falciparum NF54).
T2 construct: Plasmodium falciparum NF54 circumsporozoite protein (PfCSP), aa 281–294 of the C-linker; One of 14 overlapping peptides (P1-P14); also called C‐CSP peptide; source: synthetic peptide (PSL Peptide Specialty Laboratories GmbH)
T2 chain: QGHNMPNDPNRNVD
The description is as above.

The target in assay [3] is T3, full‐length PfCSP (FL‐CSP), NF54 (Plasmodium falciparum NF54).
T3 construct: Plasmodium falciparum NF54 circumsporozoite protein, called full-length; source: FL-CSP expressed in E. coli by the EMBL core facility; a biotinylated NF54 FL-CSP was expressed in HEK293F and purified (HisTrap HP, SEC)
The assay is described as above.

The target in assay [4] is T4, PfCSP C‐terminal domain (C‐CSP), NF54 (Plasmodium falciparum NF54, UniProt P19597).
T4 construct: Plasmodium falciparum NF54 circumsporozoite protein, C-terminal domain made of the C-linker (aa 273–310) and the α-TSR domain (aa 311–384); also called C‐CSP peptide; PfCSP C terminus; source: E. coli, by the EMBL protein expression and purification core facility
Described as above.

Assay [5] deals with T2, PfCSP C‐terminal linker peptide P2 …. Briefly: crystal structure; 3764 Fab and PfCSP 281-294 peptide mixed 1:3; 19% isopropanol, 19% PEG 4000, 5% glycerol, 0.095 M sodium citrate pH 5.6; 2.36 Å.

B1: mAb 3764 (recombinant human IgG1) (antibody, V domains shown)
VH: QVQLVESGGGVVQPGRSLRLSCAASGFTFSSYGMHWVRQAPGKGLEWVAVIWYDGSYKSYIESVKGRFTISRDNSKNTLYLQMNSLRVEDTAVYYCALGYSSGQGTLDNWGQGTLVTVSS
VL: DVVMTQSPLSLAVTLGQPASISCRSTQSLVYSDGNTYLNWFQQRPGQSPRRLIYKVSNRDSGVPDRFSGSESGTDFTLKISRVEAEDVGLYYCMQGTHWPWTFGQGTKVEIK
notes: heavy chain variable region of mAb 3764 (IGHV3-33); human IgG1 constant region from the IGHG1 expression vector; kappa chain variable region of mAb 3764; human Ig kappa constant region from the IGKC expression vector; IgG1; Somatic mutations H.N56Y and H.Y58S against germline are already part of the antibody; also called C‐linker specific mAb 3764; source: HEK293T, co-transfected, purified from …
Regarding B1, the binding result in assay [1], in assay [2], in assay [3] and in assay [4] was “binds” each time.

B2: 3764 Fab (Fab, V domains shown)
VH: QVQLVESGGGVVQPGRSLRLSCAASGFTFSSYGMHWVRQAPGKGLEWVAVIWYDGSYKSYIESVKGRFTISRDNSKNTLYLQMNSLRVEDTAVYYCALGYSSGQGTLDNWGQGTLVTVSS
VL: DVVMTQSPLSLAVTLGQPASISCRSTQSLVYSDGNTYLNWFQQRPGQSPRRLIYKVSNRDSGVPDRFSGSESGTDFTLKISRVEAEDVGLYYCMQGTHWPWTFGQGTKVEIK
notes: mAb 3764 heavy chain variable region upstream of human IgG1-CH1; mAb 3764 kappa chain variable region upstream of human IgK constant domain; also called mAb 3764 Fab; source: HEK293F, transiently co-transfected, purified (Kappa-select, MonoS cation exchange, Superdex 200 SEC)
As to B2, the binding result in assay [5] is “binds”.
